Measured values reported in the supplement of paper PMC10201428.
± gives the standard deviation of the averaged measurements.

How the values were obtained:
[1] = tested on: VchCAST RNA-guided transposition machinery (E. coli BL21(DE3) host, lacZ target); assay: relative integration efficiency (T-RL orientation) vs wild-type transposon end (log2 (normalized fold change)); transposon end mutated: right end (5 bp flank + 75 bp right end); higher = more efficient transposition
Summary of the method: (§1)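 Pools of 1549 left-end or 1849 right-end barcoded transposon variants were cloned into a pUC57 mini-transposon donor and co-transformed into E. coli BL21(DE3) with a T7-driven effector plasmid carrying a CRISPR array, tniQ-cas8-cas7-cas6 and tnsA-tnsB-tnsC. Plating used 0.1 mM IPTG at 37°C for 18 h, and input plasmids and genomic integration junctions were PCR-amplified for Illumina sequencing, with two biological output replicates and four reference barcodes. Relative integration efficiency is the log-transformed fold change of output over input barcode abundance, normalised to the reference barcodes.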

[2] = tested on: VchCAST RNA-guided transposition machinery (E. coli BL21(DE3) host, lacZ target); assay: relative integration efficiency (T-LR orientation) vs wild-type transposon end (log2 (normalized fold change)); transposon end mutated: right end (5 bp flank + 75 bp right end); higher = more efficient transposition
Summary of the method: as §1

ACATTTGTGGATACAACCATAAAACGATAATTACACCCATAAATTGATCATTATCACACCCAATTTAACTATAACGCTCTGATCATAGTCAGACCAACATTGCTACGACCCGTATTCGCACCGACAC
relative integration efficiency (log2) [1]: -1.43 ± 0.24
relative integration efficiency (log2) [2]: 2.1 ± 0.088

ACATTTGTGGATACAACCATAAAATGATAATTACACCCATAAATGGATAATTATCACACCCAATTTAACTATAACGCTCTGATCATAGTCAGACCAACATTGCTACGACCCGTATTCGCACCGACAC
relative integration efficiency (log2) [1]: -0.586 ± 0.33
relative integration efficiency (log2) [2]: 2.14 ± 0.031

ACATTTGTGGATACAACCATAAAATGATAATTACACCCATAAATGGATAATTATCACCCCCAATTTAACTATAACGCTCTGATCATAGTCAGACCAACATTGCTACGACCCGTATTCGCACCGACAC
relative integration efficiency (log2) [1]: -1.15 ± 0.23
relative integration efficiency (log2) [2]: 1.55 ± 0.31

ACATTTGTGGATACAACCATAAAATGATAATTACACCCATAAATGGATCATTATCACACCCAATTTAACTATAACGCTCTGATCATAGTCAGACCAACATTGCTACGACCCGTATTCGCACCGACAC
relative integration efficiency (log2) [1]: -1.53 ± 0.23
relative integration efficiency (log2) [2]: 1.01 ± 0.2

ACATTTGTGGATACAACCATAAAATGATAATTACACCCATAAATGGATCATTATCACCCCCAATTTAACTATAACGCTCTGATCATAGTCAGACCAACATTGCTACGACCCGTATTCGCACCGACAC
relative integration efficiency (log2) [1]: -1.28 ± 0.28
relative integration efficiency (log2) [2]: 1.36 ± 0.19

ACATTTGTGGATACAACCATAAAATGATAATTACACCCATAAATGGATTATTATCACACCCAATTTAACTATAACGCTCTGATCATAGTCAGACCAACATTGCTACGACCCGTATTCGCACCGACAC
relative integration efficiency (log2) [1]: -1.72 ± 0.3
relative integration efficiency (log2) [2]: 1.2 ± 0.22

ACATTTGTGGATACAACCATAAAATGATAATTACACCCATAAATTCATAATTATCACACCCAATTTAACTATAACGCTCTGATCATAGTCAGACCAACATTGCTACGACCCGTATTCGCACCGACAC
relative integration efficiency (log2) [1]: -1.9 ± 0.49
relative integration efficiency (log2) [2]: 0.877 ± 0.27

ACATTTGTGGATACAACCATAAAATGATAATTACACCCATAAATTCATAATTATCACCCCCAATTTAACTATAACGCTCTGATCATAGTCAGACCAACATTGCTACGACCCGTATTCGCACCGACAC
relative integration efficiency (log2) [1]: -1.64 ± 0.37
relative integration efficiency (log2) [2]: 1.27 ± 0.13

ACATTTGTGGATACAACCATAAAATGATAATTACACCCATAAATTCATCATTATCACACCCAATTTAACTATAACGCTCTGATCATAGTCAGACCAACATTGCTACGACCCGTATTCGCACCGACAC
relative integration efficiency (log2) [1]: -2.03 ± 0.49
relative integration efficiency (log2) [2]: 1.48 ± 0.12

ACATTTGTGGATACAACCATAAAATGATAATTACACCCATAAATTCATCATTATCACCCCCAATTTAACTATAACGCTCTGATCATAGTCAGACCAACATTGCTACGACCCGTATTCGCACCGACAC
relative integration efficiency (log2) [1]: -1.88 ± 0.43
relative integration efficiency (log2) [2]: 1.385 ± 0.0021

ACATTTGTGGATACAACCATAAAATGATAATTACACCCATAAATTCATTATTATCACACCCAATTTAACTATAACGCTCTGATCATAGTCAGACCAACATTGCTACGACCCGTATTCGCACCGACAC
relative integration efficiency (log2) [1]: -2.59 ± 0.53
relative integration efficiency (log2) [2]: 0.908 ± 0.36

ACATTTGTGGATACAACCATAAAATGATAATTACACCCATAAATTGATAATTATCACCCCCAATTTAACTATAACGCTCTGATCATAGTCAGACCAACATTGCTACGACCCGTATTCGCACCGACAC
relative integration efficiency (log2) [1]: -0.606 ± 0.13
relative integration efficiency (log2) [2]: 2.44 ± 0.065

ACATTTGTGGATACAACCATAAAATGATAATTACACCCATAAATTGATCATTATCACACCCAATTTAACTATAACGCTCTGATCATAGTCAGACCAACATTGCTACGACCCGTATTCGCACCGACAC
relative integration efficiency (log2) [1]: -1.46 ± 0.31
relative integration efficiency (log2) [2]: 1.89 ± 0.19

ACATTTGTGGATACAACCATAAAATGATAATTACACCCATAAATTGATCATTATCACCCCCAATTTAACTATAACGCTCTGATCATAGTCAGACCAACATTGCTACGACCCGTATTCGCACCGACAC
relative integration efficiency (log2) [1]: -1.27 ± 0.17
relative integration efficiency (log2) [2]: 1.99 ± 0.056

ACATTTGTGGATACAACCATAAAATGATAATTACACCCATAAATTTATAATTATCACACCCAATTTAACTATAACGCTCTGATCATAGTCAGACCAACATTGCTACGACCCGTATTCGCACCGACAC
relative integration efficiency (log2) [1]: -1.09 ± 0.41
relative integration efficiency (log2) [2]: 1.8 ± 0.36
